Test results taken from PMC11035067.

How the values were obtained:
Experiment in all cases: SEC; gel filtration during purification, Superdex 200 increase 10/300 GL in gel-filtration buffer (Table S2), non-actinic dim green light; self-association (dimer)
[1] = target: IsPadC H193L (Idiomarina sp. A28L)
[2] = target: IsPadC G449E (Idiomarina sp. A28L)
[3] = target: IsPadC H193Q (Idiomarina sp. A28L)
[4] = target: IsPadC R467S (Idiomarina sp. A28L)
[5] = target: IsPadC D199N (Idiomarina sp. A28L)
[6] = target: Idiomarina species A28L phytochrome-activated diguanylate cyclase (IsPadC), wild type (Idiomarina sp. A28L)
[7] = target: IsPadC D199L (Idiomarina sp. A28L)

## IsPadC H193L (enzyme)
[1]
  stoichiometry N: 2

## IsPadC G449E (enzyme)
[2]
  stoichiometry N: 2

## IsPadC H193Q (enzyme)
[3]
  stoichiometry N: 2

## IsPadC R467S (enzyme)
[4]
  stoichiometry N: 2

## IsPadC D199N (enzyme)
[5]
  stoichiometry N: 2

## Idiomarina species A28L phytochrome-activated diguanylate cyclase (IsPadC), wild type (enzyme)
[6]
  stoichiometry N: 2

## IsPadC D199L (enzyme)
[7]
  stoichiometry N: 2
